{
  "source": "patent US20240383950A1",
  "about": "“RECOMBINANT GLYCAN BINDING PROTEINS AND ITS USE” (UNICHEM LABORATORIES LIMITED, priority 2021, published 2024)",
  "molecules": {"B1": {"name": "SEQ ID NO. 4: SEQ ID NO. 2 re-engineered: Serine at 1st, Glycine at 76th, Serine added at 142nd and Cysteine at 143rd position (protein)", "chain": "SYKITVRVYQTNPDAFFHPVEKTVWKYANGGTWTITDDQHVLTMGGSGTSGTLRFHADNGESFTATFGVHNYKRWGDIVTNLAADETGMVINQQYYSQKNREEARERQLSNYQVKNAKGRNFQIVYTEAEGNDLHANLIIGSC"}, "B2": {"name": "SEQ ID NO. 2: recombinant glycan binding protein, variant of Sclerotium Rolfsii Lectin, disclosed in Indian Patent Application 350/MUM/2009 (protein)", "chain": "TYKITVRVYQTNPDAFFHPVEKTVWKYANGGTWTITDDQHVLTMGGSGTSGTLRFHADNGESFTATFGVHNYKRWCDIVTNLAADETGMVINQQYYSQKNREEARERQLSNYQVKNAKGRNFQIVYTEAEGNDLHANLIIG"}, "B3": {"name": "SEQ ID NO. 3: SEQ ID NO. 2 re-engineered: Serine at 1st position, Glycine at 76th position, Cysteine added at carboxy terminal end (protein)", "chain": "SYKITVRVYQTNPDAFFHPVEKTVWKYANGGTWTITDDQHVLTMGGSGTSGTLRFHADNGESFTATFGVHNYKRWGDIVTNLAADETGMVINQQYYSQKNREEARERQLSNYQVKNAKGRNFQIVYTEAEGNDLHANLIIGC"}, "B4": {"name": "Conjugate of Example 8: Protein of SEQ ID NO. 3 conjugated to cytotoxic drug MMAE using MC-Val-Cit-PAB-MMAE; DAR value 1.0 (conjugate)", "chain": "SYKITVRVYQTNPDAFFHPVEKTVWKYANGGTWTITDDQHVLTMGGSGTSGTLRFHADNGESFTATFGVHNYKRWGDIVTNLAADETGMVINQQYYSQKNREEARERQLSNYQVKNAKGRNFQIVYTEAEGNDLHANLIIGC", "modifications": "MC-Val-Cit-PAB-MMAE conjugate, DAR 1.0", "notes": "DAR value 1.0"}},
  "key": {"[1]": {"test": "pI of purified protein", "format": "physicochemical", "from_the_text": "The molecular mass and pI of purified protein of SEQ ID NO. 3 and SEQ ID NO."}, "[2]": {"test": "Glycan binding study, N-Glycan array"}, "[3]": {"test": "Glycan binding study, O-Glycan array, core 2", "conditions": "O-Glycan array containing 94 glycans"}, "[4]": {"test_system": "bladder cancer cells (T24)", "test": "Colocalization study in cell organelles by confocal microscopy", "format": "cell-based", "conditions": "FITC-labelled, 100 μg/mL, 2 h, 37° C."}, "[5]": {"test_system": "Blood cancer cellline Jurkat E6", "test": "MTS-PMS cytotoxicity bioassay, Jurkat E6", "conditions": "80 μg/ml; 5000 cells/well", "quoted_text": "5000 cells/well were used for testing.\n(§5) The drug Doxorubicin was used as system suitability (SST) reference."}, "[6]": {"test_system": "Blood Cancer Cellline MOLT-3", "test": "MTS-PMS cytotoxicity bioassay, MOLT-3", "conditions": "80 μg/ml; 5000 cells/well", "quoted_text": "5000 cells/well were used for testing.\nas §5"}, "[7]": {"test_system": "Ovarian Cancer cell line PA-1", "test": "MTS-PMS cytotoxicity bioassay, PA-1", "conditions": "80 μg/ml; 5000 cells/well", "quoted_text": "5000 cells/well were used for testing.\nas §5"}, "[8]": {"test": "Stability of expressed protein in TBS buffer", "format": "physicochemical", "conditions": "for % Single max impurity / % Total impurity / % purity: 10 mM TBS buffer pH 7.8, 2-8° C.", "description": "Stability of expressed protein i.e., SEQ ID NO. 3 was evaluated for 2 weeks using 10 mM TBS buffer with pH 7.8 at 2-8° C."}, "[9]": {"test_system": "human urinary Bladder cancer cell line (T-24)", "test": "Cytotoxicity bioassay of conjugate, T-24", "format": "cell-based", "conditions": "72 hours; Cell titer glow", "description": "(§1) Bioassay—Cytotoxicity effect Conjugate of Example 8 against ovarian cancer cell line (PA-1) and human urinary Bladder cancer cell line (T-24) was assayed.\n(§2) 5,000 cells/well were plated and incubated at 37° C. overnight.\n(§3) Conjugates/vehicle control dilutions were made in respective media and added to cells. Volume added: 50 uL to each well. […] Each concentration was analysed in triplicates. Media-only wells was used as a control to calculate percent viability. Cell titer glow reagent (volume: 50 uL) was added to each well, the plate was shaken for 5 mins and the luminescence was recorded. Drug Treatment Time: 72 hours. Percent viability was calculated by dividing the luminescence signal obtained for each treated well by the untreated well (media-only control) and multiplying by 100.\n(§4) Data was next transformed using X=Log(x) and then analysed with nonlinear regression (curve fit), Dose Response inhibition−log (inhibitor) vs response (3 parameters) using PRISM software to determine the IC50 value."}, "[10]": {"test_system": "ovarian cancer cell line (PA-1)", "test": "Cytotoxicity bioassay of conjugate, PA-1", "format": "cell-based", "conditions": "72 hours; Cell titer glow", "description": "as §1, §2, §3, §4"}},
  "data": [
    {"molecule": "B1", "values": [
      {"measurement": "pI", "setting": "[1]", "value": 6.49}
    ]},
    {"molecule": "B2", "values": [
      {"measurement": "Estimated Kd for T antigen", "setting": "O-Glycan array containing 94 glycans", "value": 0.319, "unit": "µg/mL"},
      {"measurement": "binding profile to O-glycans", "setting": "O-Glycan array, T-antigen and its extended core structures", "value": "strong and broad binding profile to O-glycans"},
      {"measurement": "binding to N-glycans", "setting": "[2]", "value": "specific binding to N-glycans containing GlcNac at the non-reducing end"},
      {"measurement": "Estimated Kd for core 2", "setting": "[3]", "value": 0.212, "unit": "µg/mL"},
      {"measurement": "colocalization in cell organelles", "setting": "[4]", "value": "colocalized in Mitochondria, Endoplasmic reticulum, Golgi bodies and Plasma membrane"},
      {"measurement": "% Cytotoxicity on Cell-lines Jurkat E6", "setting": "[5]", "value": 61, "unit": "%"},
      {"measurement": "% Cytotoxicity on Cell-lines MOLT-3", "setting": "[6]", "value": 46, "unit": "%"},
      {"measurement": "% Cytotoxicity on Cell-lines PA-1", "setting": "[7]", "value": 81, "unit": "%"}
    ]},
    {"molecule": "B3", "values": [
      {"measurement": "% Single max impurity", "setting": "[8]; 0 Week", "value": 1.31, "unit": "%"},
      {"measurement": "% Total impurity", "setting": "[8]; 0 Week", "value": 1.95, "unit": "%"},
      {"measurement": "% purity", "setting": "[8]; 0 Week", "value": 98.05, "unit": "%"},
      {"measurement": "% Single max impurity", "setting": "[8]; 1 Week", "value": 0.98, "unit": "%"},
      {"measurement": "% Total impurity", "setting": "[8]; 1 Week", "value": 2.66, "unit": "%"},
      {"measurement": "% purity", "setting": "[8]; 1 Week", "value": 97.34, "unit": "%"},
      {"measurement": "% Single max impurity", "setting": "[8]; 2 Week", "value": 0.86, "unit": "%"},
      {"measurement": "% Total impurity", "setting": "[8]; 2 Week", "value": 2.91, "unit": "%"},
      {"measurement": "% purity", "setting": "[8]; 2 Week", "value": 97.09, "unit": "%"},
      {"measurement": "stability", "setting": "[8]; 2 weeks, 10 mM TBS buffer with pH 7.8 at 2-8° C.", "value": "stable"},
      {"measurement": "% Cytotoxicity on Cell-lines Jurkat E6", "setting": "[5]", "value": 68, "unit": "%"},
      {"measurement": "% Cytotoxicity on Cell-lines MOLT-3", "setting": "[6]", "value": 43, "unit": "%"},
      {"measurement": "pI", "setting": "[1]", "value": 6.49},
      {"measurement": "% Cytotoxicity on Cell-lines PA-1", "setting": "[7]", "value": 82, "unit": "%"}
    ]},
    {"molecule": "B4", "values": [
      {"measurement": "IC50", "setting": "[9]", "value": 325, "unit": "nM"},
      {"measurement": "IC50", "setting": "[10]", "value": 17.7, "unit": "nM"}
    ]}
  ]
}
